B1: CDC25B (parent)
chain: FVDILESDLKDDDAVPPGMESLIS

Variants of: B1
Test: protein stability index of a GFP-peptide fusion (GPS, HEK-293T) (PSI 1-6); higher = more stable
Settings: c terminus: a fixed tail appended
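Further: lentivirally expressed fusions sorted by FACS into six bins by GFP to DsRed ratio, PSI derived from sequencing read proportions per bin multiplied by bin number.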

Protein stability index: each site, then its substitutions
S24: H 2.94 | W 1.72 | Q 3.9 | T 3.02 | R 2.96 | K 2.82 | E 3.27 | I 2.69 | Y 2.47 | A 3.1 | N 2.85
L5: K 3.63 | G 3.73 | V 3.03 | N 3.81 | Q 3.67 | P 3.75 | F 2.35 | I 2.46 | C 3.02 | A 3.84 | T 3.51 | H 3.7 | S 4.58 | W 1.85 | Y 2.8 | D 4.61
I23: R 2.77 | E 3.57 | N 2.6 | F 2.48 | V 2.65 | A 3.54 | T 2.91 | C 2.93
V2: T 4.43 | W 3.32 | P 4.8 | D 5.14 | A 4.51 | E 5.29 | F 4.08 | Q 3.98 | K 4.67 | H 4.68 | G 3.81 | I 3.8 | Y 4.29 | S 5.04
P17: A 2.95 | I 2.45 | M 2.69 | V 2.27 | T 3.51 | Y 2.71 | K 2.45 | G 3.25 | L 2.43 | C 2.58 | Q 3.2 | F 2.21 | E 3.6 | N 2.66 | D 3.2 | S 2.72
I4: V 3.13 | P 4.03 | M 2.47 | R 3.11 | E 4.52 | A 4.18 | F 2.8 | C 3.91 | Q 3.75 | N 4.34 | W 2.29 | S 4.05 | L 2.75
E20: R 2.71 | H 2.69 | F 1.79 | Y 2.12 | C 2.43 | D 2.6 | L 2.2 | W 1.78 | M 2.16 | S 2.43 | T 2.51 | I 2.31 | G 2.48 | N 2.76 | P 2.44
L22: G 3.21 | M 3.1 | N 2.71 | F 2.63 | C 3.15 | R 2.66 | D 3.67 | Y 2.47 | H 3.52 | S 3.66 | T 3.65 | V 3.19 | Q 3.32 | E 3.92
G18: W 2.31 | Q 2.86 | C 2.6 | A 3.03 | P 3.18 | S 3.06 | V 2.87 | L 3.51 | Y 2.65 | N 3.23 | E 3.39 | R 2.87 | K 2.8 | M 2.6 | I 2.32
L9: F 2.85 | Y 3.18 | R 3.08 | C 3.05 | G 3.05 | M 3.03 | N 3.67 | H 3.33 | V 2.93 | P 3.62 | E 3.39 | T 3.23 | Q 3.18 | S 3.36 | A 3.09
D12: Q 2.62 | H 2.88 | V 2.56 | C 2.5 | E 2.93 | L 2.9 | W 1.83 | R 2.16 | T 2.65 | S 2.96 | P 2.66 | A 2.84 | I 2.21 | F 2.19 | G 3.01 | N 2.67
V15: S 3.32 | L 2.78 | A 2.78 | Y 3.1 | R 2.69 | T 2.92 | N 3.27 | I 3 | H 3.04 | W 2.69 | G 3.19 | K 2.96 | Q 2.87 | C 2.88
